Experimental data reported in publication doi:10.1101/2025.08.17.670156 (bioRxiv, 2025).

Target: the molecule itself
Experiment: deep-blue autofluorescence of amyloid fibrils

Protein | binding result
double plant homeodomain fingers 3a (DPF3 isoform a), wild type (natural protein, human, UniProt Q92784-2 1-357, looked up) MATVIHNPLKALGDQFYKEAIEHCRSYNSRLCAERSVRLPFLDSQTGVAQNNCYIWMEKRHRGPGLAPGQLYTYPARCWRKKRRLHPPEDPKLRLLEIKPEVELPLKKDGFTSESTTLEALLRGEGVEKKVDAREEESIQEIQRVLENDENVEEGNEEEDLEEDIPKRKNRTRGRARGSAGGRRRHDAASQEDHDKPYVCDICGKRYKNRPGLSYHYAHTHLASEEGDEAQDQETRSPPNHRNENHRPQKGPDGTVIPNNYCDFCLGGSNMNKKSGRPEELVSCADCGRSAHLGGEGRKEKEAAAAARTTEDLFGSTSESDTSTFHGFDEDDLEEPRSCRGRRSGRGSPTADKKGSC | binds
DPF3a phosphomimetic S348E (natural protein, human, UniProt Q92784-2 1-357, looked up) MATVIHNPLKALGDQFYKEAIEHCRSYNSRLCAERSVRLPFLDSQTGVAQNNCYIWMEKRHRGPGLAPGQLYTYPARCWRKKRRLHPPEDPKLRLLEIKPEVELPLKKDGFTSESTTLEALLRGEGVEKKVDAREEESIQEIQRVLENDENVEEGNEEEDLEEDIPKRKNRTRGRARGSAGGRRRHDAASQEDHDKPYVCDICGKRYKNRPGLSYHYAHTHLASEEGDEAQDQETRSPPNHRNENHRPQKGPDGTVIPNNYCDFCLGGSNMNKKSGRPEELVSCADCGRSAHLGGEGRKEKEAAAAARTTEDLFGSTSESDTSTFHGFDEDDLEEPRSCRGRRSGRGEPTADKKGSC | binds
DPF3a phosphomimetic S138E (natural protein, human, UniProt Q92784-2 1-357, looked up) MATVIHNPLKALGDQFYKEAIEHCRSYNSRLCAERSVRLPFLDSQTGVAQNNCYIWMEKRHRGPGLAPGQLYTYPARCWRKKRRLHPPEDPKLRLLEIKPEVELPLKKDGFTSESTTLEALLRGEGVEKKVDAREEEEIQEIQRVLENDENVEEGNEEEDLEEDIPKRKNRTRGRARGSAGGRRRHDAASQEDHDKPYVCDICGKRYKNRPGLSYHYAHTHLASEEGDEAQDQETRSPPNHRNENHRPQKGPDGTVIPNNYCDFCLGGSNMNKKSGRPEELVSCADCGRSAHLGGEGRKEKEAAAAARTTEDLFGSTSESDTSTFHGFDEDDLEEPRSCRGRRSGRGSPTADKKGSC | binds
